Experimental data published in publication PMC8421416, “Structure of the native pyruvate dehydrogenase complex reveals the mechanism of substrate insertion” (Nature Communications, 2021).

B1: dihydrolipoyl transacetylase (E2p) of the E. coli pyruvate dehydrogenase complex (enzyme, E. coli K12, UniProt P06959 1-630, looked up)
chain: MAIEIKVPDIGADEVEITEILVKVGDKVEAEQSLITVEGDKASMEVPSPQAGIVKEIKVSVGDKTQTGALIMIFDSADGAADAAPAQAEEKKEAAPAAAPAAAAAKDVNVPDIGSDEVEVTEILVKVGDKVEAEQSLITVEGDKASMEVPAPFAGTVKEIKVNVGDKVSTGSLIMVFEVAGEAGAAAPAAKQEAAPAAAPAPAAGVKEVNVPDIGGDEVEVTEVMVKVGDKVAAEQSLITVEGDKASMEVPAPFAGVVKELKVNVGDKVKTGSLIMIFEVEGAAPAAAPAKQEAAAPAPAAKAEAPAAAPAAKAEGKSEFAENDAYVHATPLIRRLAREFGVNLAKVKGTGRKGRILREDVQAYVKEAIKRAEAAPAATGGGIPGMLPWPKVDFSKFGEIEEVELGRIQKISGANLSRNWVMIPHVTHFDKTDITELEAFRKQQNEEAAKRKLDVKITPVVFIMKAVAAALEQMPRFNSSLSEDGQRLTLKKYINIGVAVDTPNGLVVPVFKDVNKKGIIELSRELMTISKKARDGKLTAGEMQGGCFTISSIGGLGTTHFAPIVNAPEVAILGVSKSAMEPVWNGKEFVPRLMLPISLSFDHRVIDGADGARFITIINNTLSDIRRLVM
modifications: lipoylated residues K41, K144 and K245 (mass spectrometry); dihydrolipoyllysine modelled at K245 in the structure
notes: dihydrolipoyl transacetylase (E2p), aceF gene, E. coli strain K12; native full-length protein, modelled catalytic domain starts at P384; It was modelled as the innermost one (K245), from PDB 1qjo; also called dihydrolipoyl acyltransferase; E2p core; source: endogenous, E. coli K12; copies: 24

Tests used:
[1] = molecular target: T1, dihydrolipoyl transacetylase (E2p) core of E. coli PDHc (Escherichia coli, UniProt P06959); assay: cryo-EM structure, […] A; assay type: binding; settings: covalent: moiety attached by amide bond to K245 of the lipoyl domain of the same protein (dihydrolipoyllysine), not the free amide; bound in E2p active site channel; no CoA; reduced state modelled, ox
T1 construct: gene aceF; native full-length E2p in native PDHc; catalytic domain modelled from P384 plus one lipoyl domain (averaged, modelled as innermost, K245); octahedral 24-mer
T1 sequence (P06959 2-630): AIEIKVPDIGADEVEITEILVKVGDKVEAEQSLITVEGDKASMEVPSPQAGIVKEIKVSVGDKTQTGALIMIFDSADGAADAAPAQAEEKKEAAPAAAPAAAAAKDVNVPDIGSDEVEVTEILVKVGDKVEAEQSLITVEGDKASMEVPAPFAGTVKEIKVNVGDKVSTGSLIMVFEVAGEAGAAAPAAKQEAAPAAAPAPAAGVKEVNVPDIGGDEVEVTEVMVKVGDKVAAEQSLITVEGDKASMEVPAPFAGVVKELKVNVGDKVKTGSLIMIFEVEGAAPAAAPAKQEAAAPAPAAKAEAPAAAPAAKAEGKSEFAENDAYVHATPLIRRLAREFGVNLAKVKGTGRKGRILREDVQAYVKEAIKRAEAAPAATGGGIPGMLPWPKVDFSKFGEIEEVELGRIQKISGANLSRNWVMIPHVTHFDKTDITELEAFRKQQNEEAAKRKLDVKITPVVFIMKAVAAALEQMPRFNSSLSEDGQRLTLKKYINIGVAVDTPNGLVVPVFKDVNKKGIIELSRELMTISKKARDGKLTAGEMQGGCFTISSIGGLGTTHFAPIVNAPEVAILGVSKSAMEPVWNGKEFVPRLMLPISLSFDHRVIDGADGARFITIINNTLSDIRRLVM

[2] = molecular target: the molecule itself; assay: cryo-EM structure; native E2p core of PDHc isolated from E. coli K12, resting state without substrates; 20 mM Hepes pH 7.5, 150 mM NaCl; O symmetry imposed, 3.16 Å
[3] = molecular target: T2, pyruvate dehydrogenase (E1p) of the E. coli pyruvate dehydrogenase complex (E. coli K12 (endogenous), UniProt P0AFG8 1-887); assay: cryo-EM structure; whole native PDHc (approx. 4.5 MDa) isolated from E. coli K12; low-resolution reconstruction without symmetry; 2D classes of the outer shell after subtraction of the E2p core; settings: both partners purified
T2 construct: pyruvate dehydrogenase E1 component (E1p), E. coli K12, endogenous subunit of the native PDHc; source: endogenous, E. coli K12
T2 sequence (P0AFG8 whole entry, one chain of several): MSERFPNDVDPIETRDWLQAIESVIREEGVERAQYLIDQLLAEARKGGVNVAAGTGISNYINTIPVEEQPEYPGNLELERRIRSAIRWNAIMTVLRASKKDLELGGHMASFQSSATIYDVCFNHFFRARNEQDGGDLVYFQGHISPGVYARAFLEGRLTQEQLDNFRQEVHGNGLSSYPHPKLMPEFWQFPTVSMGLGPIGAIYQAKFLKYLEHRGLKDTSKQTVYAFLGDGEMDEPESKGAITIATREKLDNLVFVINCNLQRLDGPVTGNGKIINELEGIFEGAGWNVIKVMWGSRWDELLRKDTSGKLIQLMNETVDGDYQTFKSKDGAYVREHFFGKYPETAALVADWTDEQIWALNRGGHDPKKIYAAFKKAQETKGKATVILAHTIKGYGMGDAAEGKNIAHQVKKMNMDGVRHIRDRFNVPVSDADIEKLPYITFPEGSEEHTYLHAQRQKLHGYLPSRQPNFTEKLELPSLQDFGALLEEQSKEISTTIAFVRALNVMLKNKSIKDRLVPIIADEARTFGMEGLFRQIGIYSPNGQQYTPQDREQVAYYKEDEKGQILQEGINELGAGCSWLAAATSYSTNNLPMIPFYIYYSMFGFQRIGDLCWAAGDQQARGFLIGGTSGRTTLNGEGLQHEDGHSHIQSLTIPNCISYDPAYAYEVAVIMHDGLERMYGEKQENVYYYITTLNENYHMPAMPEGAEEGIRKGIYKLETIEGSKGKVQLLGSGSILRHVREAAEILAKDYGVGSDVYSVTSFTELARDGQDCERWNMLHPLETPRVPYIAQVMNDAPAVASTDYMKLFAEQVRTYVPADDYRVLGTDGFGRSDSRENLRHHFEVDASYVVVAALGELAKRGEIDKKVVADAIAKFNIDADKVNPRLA

[4] = molecular target: B1; assay: as above; settings: both partners purified

Molecule: NC(=O)CCCC[C@@H](S)CCS [dihydrolipoamide]
- cryo-EM structure, 3.16 A [1]: we modeled the prosthetic group as dihydrolipoamide, i.e., the product of the E2p-catalyzed reaction

Molecule: B1
- stoichiometry N [2]: 24
- binding result [3]: binds

B2: dihydrolipoyl dehydrogenase (E3) of the E. coli pyruvate dehydrogenase complex (enzyme, E. coli K12 (endogenous), UniProt P0A9P0 1-474, looked up)
chain: MSTEIKTQVVVLGAGPAGYSAAFRCADLGLETVIVERYNTLGGVCLNVGCIPSKALLHVAKVIEEAKALAEHGIVFGEPKTDIDKIRTWKEKVINQLTGGLAGMAKGRKVKVVNGLGKFTGANTLEVEGENGKTVINFDNAIIAAGSRPIQLPFIPHEDPRIWDSTDALELKEVPERLLVMGGGIIGLEMGTVYHALGSQIDVVEMFDQVIPAADKDIVKVFTKRISKKFNLMLETKVTAVEAKEDGIYVTMEGKKAPAEPQRYDAVLVAIGRVPNGKNLDAGKAGVEVDDRGFIRVDKQLRTNVPHIFAIGDIVGQPMLAHKGVHEGHVAAEVIAGKKHYFDPKVIPSIAYTEPEVAWVGLTEKEAKEKGISYETATFPWAASGRAIASDCADGMTKLIFDKESHRVIGGAIVGTNGGELLGEIGLAIEMGCDAEDIALTIHAHPTLHESVGLAAEVFEGSITDLPNPKAKKK
notes: dihydrolipoyl dehydrogenase (E3), E. coli K12, endogenous subunit of the native PDHc; source: endogenous, E. coli K12
- binding result [4]: binds
